Earlier results in paper PMC2814318.

Columns and labels:
[1] = target: CaV β1b subunit (Rattus norvegicus) (UniProt P54283)
[2] = target: CaV β2a subunit (Rattus norvegicus) (UniProt Q8VGC3)

CaMKIIδ, sequence (P15791 2-533, stated change not applied): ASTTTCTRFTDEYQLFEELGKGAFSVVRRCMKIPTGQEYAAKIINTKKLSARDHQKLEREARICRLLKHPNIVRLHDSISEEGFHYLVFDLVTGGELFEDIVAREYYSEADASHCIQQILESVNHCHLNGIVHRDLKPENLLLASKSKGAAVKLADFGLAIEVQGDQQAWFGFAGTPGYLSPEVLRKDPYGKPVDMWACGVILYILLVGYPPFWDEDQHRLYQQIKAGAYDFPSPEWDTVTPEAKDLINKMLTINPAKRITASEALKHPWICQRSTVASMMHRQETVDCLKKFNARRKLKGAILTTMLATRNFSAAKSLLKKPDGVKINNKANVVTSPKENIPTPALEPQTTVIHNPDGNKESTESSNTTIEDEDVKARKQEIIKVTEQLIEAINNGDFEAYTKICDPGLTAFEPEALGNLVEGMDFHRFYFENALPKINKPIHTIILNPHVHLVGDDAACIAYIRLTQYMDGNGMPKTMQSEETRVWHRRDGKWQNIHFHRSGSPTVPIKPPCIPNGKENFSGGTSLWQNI
CaV β1b subunit (Rattus norvegicus), sequence (P54283 whole entry): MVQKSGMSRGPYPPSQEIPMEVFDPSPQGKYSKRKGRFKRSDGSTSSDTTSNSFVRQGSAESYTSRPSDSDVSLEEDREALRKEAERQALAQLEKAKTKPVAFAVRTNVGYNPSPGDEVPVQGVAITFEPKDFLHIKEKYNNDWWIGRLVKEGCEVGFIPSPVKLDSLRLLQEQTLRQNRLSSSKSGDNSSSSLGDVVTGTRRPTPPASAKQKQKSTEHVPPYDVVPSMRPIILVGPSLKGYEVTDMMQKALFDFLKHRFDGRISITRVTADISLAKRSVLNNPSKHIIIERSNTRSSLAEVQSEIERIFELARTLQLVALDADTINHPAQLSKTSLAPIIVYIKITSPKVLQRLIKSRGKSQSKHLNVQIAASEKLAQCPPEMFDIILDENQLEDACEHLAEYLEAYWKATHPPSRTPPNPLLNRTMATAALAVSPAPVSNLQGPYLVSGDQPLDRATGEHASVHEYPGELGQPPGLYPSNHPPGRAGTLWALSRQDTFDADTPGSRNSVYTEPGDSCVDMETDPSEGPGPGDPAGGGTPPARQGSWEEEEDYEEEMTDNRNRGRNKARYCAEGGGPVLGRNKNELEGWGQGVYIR

Kd [1]: 0.1 µM | Kd [2]: 0.1 µM
Substance: CaMKIIδ (from UniProt P15791)
